Literature values in article PMC9154193.

Key:
ULBP3 (Homo sapiens) = ULBP3 (Homo sapiens) (UniProt Q9BZM4)
Grb2 SH3 (Homo sapiens) = Grb2 SH3 (Homo sapiens) (UniProt P62993)
Lck SH2 (Homo sapiens) = Lck SH2 (Homo sapiens) (UniProt P06239)
Chain of UniProt P06239 (P06239 124-227): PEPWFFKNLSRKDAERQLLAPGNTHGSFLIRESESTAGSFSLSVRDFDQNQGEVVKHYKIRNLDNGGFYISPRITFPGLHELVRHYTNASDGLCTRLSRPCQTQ

Chain of UniProt Q9BZM4 (Q9BZM4 30-217): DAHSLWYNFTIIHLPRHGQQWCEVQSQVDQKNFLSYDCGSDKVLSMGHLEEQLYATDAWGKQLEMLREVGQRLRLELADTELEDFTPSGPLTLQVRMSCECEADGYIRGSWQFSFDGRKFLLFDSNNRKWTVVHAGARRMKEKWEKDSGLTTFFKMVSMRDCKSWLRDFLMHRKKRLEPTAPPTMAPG
Chain of UniProt P62993 (P62993 156-215): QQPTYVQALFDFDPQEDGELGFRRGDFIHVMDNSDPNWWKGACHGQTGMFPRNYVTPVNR

NKG2D (from UniProt P26718)
Kd (ULBP3 (Homo sapiens)): 4 µM

Vav1 SH3 (from UniProt P15498)
Kd (Grb2 SH3 (Homo sapiens)): 16.8 µM

Vav1 phospho-tyrosine region (from UniProt P15498)
Kd (Lck SH2 (Homo sapiens)): 1.39 µM
